Values of other authors in patent US20260009081A1, “CLONAL HEMATOPOIESIS AND CYTOKINE TARGETS” (TRUSTEES OF BOSTON UNIVERSITY, priority 2018, published 2026).

Target: T1, IL-1β (Homo sapiens, UniProt P01584)
T1 construct: endogenous in cells; host or cells: CANTOS trial patients (endogenous cytokine)

canakinumab: IL-1β neutralizing antibody; interleukin 1 beta monoclonal antibody
side effect of therapy (patients): infection side effect
major adverse cardiovascular events (patients with stable coronary artery disease and elevated C-reactive protein): can reduce major adverse cardiovascular events
